# T1: bovine thymus-derived HMGB1 (bovine, UniProt P10103 2-215)
# T1 construct: Bought protein from tissue
# T1 sequence (looked up): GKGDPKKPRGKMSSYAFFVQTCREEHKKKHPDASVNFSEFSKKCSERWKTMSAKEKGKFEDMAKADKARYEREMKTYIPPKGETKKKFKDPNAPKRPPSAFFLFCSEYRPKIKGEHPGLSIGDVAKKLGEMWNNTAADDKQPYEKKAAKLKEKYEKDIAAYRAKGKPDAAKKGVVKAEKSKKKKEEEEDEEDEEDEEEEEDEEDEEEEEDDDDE
# Target: T1, bovine thymus-derived HMGB1
# Assay: ELISA on HMGB1-immobilized immunoplate, antibodies adjusted to an equal concentration; OD as % of #10-22 chimera (source of the HMGB1 not named for this figure)
row,Binder,binding result
1,"D77G (antibody, human IgG1, lambda, V domains shown, co-expressed with the #10-22 chimeric antibody H chain in CHO-K1 cells; also called #10-22 chimeric antibody (L chain) site substitution variant D77G) VH: AVQLVESGGGLVQPKESLKISCAASGFTFSNAAMYWVRQAPGKGLEWVARIRTKPNNYATYYADSVKGRFTISRDDSKSMVYLQMDNLKTEDTAMYYCTAPRRTEGIVSSGVDYWGQGVMVTVSS VL: YELIQPPSASVTLGNTVSITCSGDELPKRYAYWYQQKPDKSIVRVIYKDSERPSGISDRFSGSSSGTTATLTIRGTQAEDEADYYCHSTYSDDKLPVFGGGTKLTVLG",binds
2,"D60E (antibody, human IgG1, lambda, V domains shown, co-expressed with the #10-22 chimeric antibody H chain in CHO-K1 cells; also called #10-22 chimeric antibody (L chain) site substitution variant D60E) VH: AVQLVESGGGLVQPKESLKISCAASGFTFSNAAMYWVRQAPGKGLEWVARIRTKPNNYATYYADSVKGRFTISRDDSKSMVYLQMDNLKTEDTAMYYCTAPRRTEGIVSSGVDYWGQGVMVTVSS VL: YELIQPPSASVTLGNTVSITCSGDELPKRYAYWYQQKPDKSIVRVIYKDSERPSGISERFSGSSSGTTATLTIRDTQAEDEADYYCHSTYSDDKLPVFGGGTKLTVLG",binds
3,"S59P (antibody, human IgG1, lambda, V domains shown, co-expressed with the #10-22 chimeric antibody H chain in CHO-K1 cells; also called #10-22 chimeric antibody (L chain) site substitution variant S59P) VH: AVQLVESGGGLVQPKESLKISCAASGFTFSNAAMYWVRQAPGKGLEWVARIRTKPNNYATYYADSVKGRFTISRDDSKSMVYLQMDNLKTEDTAMYYCTAPRRTEGIVSSGVDYWGQGVMVTVSS VL: YELIQPPSASVTLGNTVSITCSGDELPKRYAYWYQQKPDKSIVRVIYKDSERPSGIPDRFSGSSSGTTATLTIRDTQAEDEADYYCHSTYSDDKLPVFGGGTKLTVLG",binds
4,"K42Q (antibody, human IgG1, lambda, V domains shown, co-expressed with the #10-22 chimeric antibody H chain in CHO-K1 cells; also called #10-22 chimeric antibody (L chain) site substitution variant K42Q) VH: AVQLVESGGGLVQPKESLKISCAASGFTFSNAAMYWVRQAPGKGLEWVARIRTKPNNYATYYADSVKGRFTISRDDSKSMVYLQMDNLKTEDTAMYYCTAPRRTEGIVSSGVDYWGQGVMVTVSS VL: YELIQPPSASVTLGNTVSITCSGDELPKRYAYWYQQKPDQSIVRVIYKDSERPSGISDRFSGSSSGTTATLTIRDTQAEDEADYYCHSTYSDDKLPVFGGGTKLTVLG",binds
5,"D41G (antibody, human IgG1, lambda, V domains shown, co-expressed with the #10-22 chimeric antibody H chain in CHO-K1 cells; also called #10-22 chimeric antibody (L chain) site substitution variant D41G) VH: AVQLVESGGGLVQPKESLKISCAASGFTFSNAAMYWVRQAPGKGLEWVARIRTKPNNYATYYADSVKGRFTISRDDSKSMVYLQMDNLKTEDTAMYYCTAPRRTEGIVSSGVDYWGQGVMVTVSS VL: YELIQPPSASVTLGNTVSITCSGDELPKRYAYWYQQKPGKSIVRVIYKDSERPSGISDRFSGSSSGTTATLTIRDTQAEDEADYYCHSTYSDDKLPVFGGGTKLTVLG",binds
6,"R76S (antibody, human IgG1, lambda, V domains shown, co-expressed with the #10-22 chimeric antibody H chain in CHO-K1 cells; also called #10-22 chimeric antibody (L chain) site substitution variant R76S) VH: AVQLVESGGGLVQPKESLKISCAASGFTFSNAAMYWVRQAPGKGLEWVARIRTKPNNYATYYADSVKGRFTISRDDSKSMVYLQMDNLKTEDTAMYYCTAPRRTEGIVSSGVDYWGQGVMVTVSS VL: YELIQPPSASVTLGNTVSITCSGDELPKRYAYWYQQKPDKSIVRVIYKDSERPSGISDRFSGSSSGTTATLTISDTQAEDEADYYCHSTYSDDKLPVFGGGTKLTVLG",binds

# Target: T1, bovine thymus-derived HMGB1
# Assay: ELISA on HMGB1-immobilized immunoplate, antibodies adjusted to an equal concentration; OD as % of EV007156 (L) + #10-22 chimera (H) (source of the HMGB1 not named for this figure)
row,Binder,binding result
1,"#10-22 chimeric antibody (H chain) site substitution variant A94R (antibody, human IgG1, lambda, V domains shown, Variant H chain co-expressed with EV007156L in CHO-K1 cells) VH: AVQLVESGGGLVQPKESLKISCAASGFTFSNAAMYWVRQAPGKGLEWVARIRTKPNNYATYYADSVKGRFTISRDDSKSMVYLQMDNLKTEDTAMYYCTRPRRTEGIVSSGVDYWGQGVMVTVSS VL: YELTQPPSVSVSPGQTASITCSGDELPKRYAYWYQQKPGQSIVRVIYKDSERPSGIPERFSGSSSGTTATLTISGTQAEDEADYYCHSTYSDDKLPVFGGGTKLTVLG",binds
2,"V78A (antibody, human IgG1, lambda, V domains shown, co-expressed with EV007156L in CHO-K1 cells; also called #10-22 chimeric antibody (H chain) site substitution variant V78A; copies: 2 + 2) VH: AVQLVESGGGLVQPKESLKISCAASGFTFSNAAMYWVRQAPGKGLEWVARIRTKPNNYATYYADSVKGRFTISRDDSKSMAYLQMDNLKTEDTAMYYCTAPRRTEGIVSSGVDYWGQGVMVTVSS VL: YELTQPPSVSVSPGQTASITCSGDELPKRYAYWYQQKPGQSIVRVIYKDSERPSGIPERFSGSSSGTTATLTISGTQAEDEADYYCHSTYSDDKLPVFGGGTKLTVLG",binds
3,"A1E (antibody, human IgG1, lambda, co-expressed with EV007156L in CHO-K1 cells; also called #10-22 chimeric antibody (H chain) site substitution variant A1E; copies: 2 + 2) heavy: not shown light: YELTQPPSVSVSPGQTASITCSGDELPKRYAYWYQQKPGQSIVRVIYKDSERPSGIPERFSGSSSGTTATLTISGTQAEDEADYYCHSTYSDDKLPVFGGGTKLTVLGQPKAAPSVTLFPPSSEELQANKATLVCLISDFYPGAVTVAWKADSSPVKAGVETTTPSKQSNNKYAASSYLSLTPEQWKSHRSYSCQVTHEGSTVEKTVAPTECS",binds
4,"I20L (antibody, human IgG1, lambda, co-expressed with EV007156L in CHO-K1 cells; also called #10-22 chimeric antibody (H chain) site substitution variant I20L; copies: 2 + 2) heavy: not shown light: YELTQPPSVSVSPGQTASITCSGDELPKRYAYWYQQKPGQSIVRVIYKDSERPSGIPERFSGSSSGTTATLTISGTQAEDEADYYCHSTYSDDKLPVFGGGTKLTVLGQPKAAPSVTLFPPSSEELQANKATLVCLISDFYPGAVTVAWKADSSPVKAGVETTTPSKQSNNKYAASSYLSLTPEQWKSHRSYSCQVTHEGSTVEKTVAPTECS",binds
5,"M108L (antibody, human IgG1, lambda, co-expressed with EV007156L in CHO-K1 cells; also called #10-22 chimeric antibody (H chain) site substitution variant M108L; copies: 2 + 2) heavy: not shown light: YELTQPPSVSVSPGQTASITCSGDELPKRYAYWYQQKPGQSIVRVIYKDSERPSGIPERFSGSSSGTTATLTISGTQAEDEADYYCHSTYSDDKLPVFGGGTKLTVLGQPKAAPSVTLFPPSSEELQANKATLVCLISDFYPGAVTVAWKADSSPVKAGVETTTPSKQSNNKYAASSYLSLTPEQWKSHRSYSCQVTHEGSTVEKTVAPTECS",binds
6,"M89V (antibody, human IgG1, lambda, V domains shown, co-expressed with EV007156L in CHO-K1 cells; also called #10-22 chimeric antibody (H chain) site substitution variant M89V; copies: 2 + 2) VH: AVQLVESGGGLVQPKESLKISCAASGFTFSNAAMYWVRQAPGKGLEWVARIRTKPNNYATYYADSVKGRFTISRDDSKSMVYLQMDNLKTEDTAVYYCTAPRRTEGIVSSGVDYWGQGVMVTVSS VL: YELTQPPSVSVSPGQTASITCSGDELPKRYAYWYQQKPGQSIVRVIYKDSERPSGIPERFSGSSSGTTATLTISGTQAEDEADYYCHSTYSDDKLPVFGGGTKLTVLG",binds
7,"E16G (antibody, human IgG1, lambda, co-expressed with EV007156L in CHO-K1 cells; also called #10-22 chimeric antibody (H chain) site substitution variant E16G; copies: 2 + 2) heavy: not shown light: YELTQPPSVSVSPGQTASITCSGDELPKRYAYWYQQKPGQSIVRVIYKDSERPSGIPERFSGSSSGTTATLTISGTQAEDEADYYCHSTYSDDKLPVFGGGTKLTVLGQPKAAPSVTLFPPSSEELQANKATLVCLISDFYPGAVTVAWKADSSPVKAGVETTTPSKQSNNKYAASSYLSLTPEQWKSHRSYSCQVTHEGSTVEKTVAPTECS",binds
8,"M77T (antibody, human IgG1, lambda, V domains shown, co-expressed with EV007156L in CHO-K1 cells; also called #10-22 chimeric antibody (H chain) site substitution variant M77T; copies: 2 + 2) VH: AVQLVESGGGLVQPKESLKISCAASGFTFSNAAMYWVRQAPGKGLEWVARIRTKPNNYATYYADSVKGRFTISRDDSKSTVYLQMDNLKTEDTAMYYCTAPRRTEGIVSSGVDYWGQGVMVTVSS VL: YELTQPPSVSVSPGQTASITCSGDELPKRYAYWYQQKPGQSIVRVIYKDSERPSGIPERFSGSSSGTTATLTISGTQAEDEADYYCHSTYSDDKLPVFGGGTKLTVLG",binds
9,"P41S (antibody, human IgG1, lambda, V domains shown, co-expressed with EV007156L in CHO-K1 cells; also called #10-22 chimeric antibody (H chain) site substitution variant P41S; copies: 2 + 2) VH: AVQLVESGGGLVQPKESLKISCAASGFTFSNAAMYWVRQASGKGLEWVARIRTKPNNYATYYADSVKGRFTISRDDSKSMVYLQMDNLKTEDTAMYYCTAPRRTEGIVSSGVDYWGQGVMVTVSS VL: YELTQPPSVSVSPGQTASITCSGDELPKRYAYWYQQKPGQSIVRVIYKDSERPSGIPERFSGSSSGTTATLTISGTQAEDEADYYCHSTYSDDKLPVFGGGTKLTVLG",binds
10,"V107T (antibody, human IgG1, lambda, co-expressed with EV007156L in CHO-K1 cells; also called #10-22 chimeric antibody (H chain) site substitution variant V107T; copies: 2 + 2) heavy: not shown light: YELTQPPSVSVSPGQTASITCSGDELPKRYAYWYQQKPGQSIVRVIYKDSERPSGIPERFSGSSSGTTATLTISGTQAEDEADYYCHSTYSDDKLPVFGGGTKLTVLGQPKAAPSVTLFPPSSEELQANKATLVCLISDFYPGAVTVAWKADSSPVKAGVETTTPSKQSNNKYAASSYLSLTPEQWKSHRSYSCQVTHEGSTVEKTVAPTECS",binds
11,"S76N (antibody, human IgG1, lambda, V domains shown, co-expressed with EV007156L in CHO-K1 cells; also called #10-22 chimeric antibody (H chain) site substitution variant S76N; copies: 2 + 2) VH: AVQLVESGGGLVQPKESLKISCAASGFTFSNAAMYWVRQAPGKGLEWVARIRTKPNNYATYYADSVKGRFTISRDDSKNMVYLQMDNLKTEDTAMYYCTAPRRTEGIVSSGVDYWGQGVMVTVSS VL: YELTQPPSVSVSPGQTASITCSGDELPKRYAYWYQQKPGQSIVRVIYKDSERPSGIPERFSGSSSGTTATLTISGTQAEDEADYYCHSTYSDDKLPVFGGGTKLTVLG",binds
12,"N82bS (antibody, human IgG1, lambda, V domains shown, co-expressed with EV007156L in CHO-K1 cells; also called #10-22 chimeric antibody (H chain) site substitution variant N82bS; copies: 2 + 2) VH: AVQLVESGGGLVQPKESLKISCAASGFTFSNAAMYWVRQAPGKGLEWVARIRTKPNNYATYYADSVKGRFTISRDDSKSMVYLQMDSLKTEDTAMYYCTAPRRTEGIVSSGVDYWGQGVMVTVSS VL: YELTQPPSVSVSPGQTASITCSGDELPKRYAYWYQQKPGQSIVRVIYKDSERPSGIPERFSGSSSGTTATLTISGTQAEDEADYYCHSTYSDDKLPVFGGGTKLTVLG",binds
13,"D82aN (antibody, human IgG1, lambda, V domains shown, co-expressed with EV007156L in CHO-K1 cells; also called #10-22 chimeric antibody (H chain) site substitution variant D82aN; copies: 2 + 2) VH: AVQLVESGGGLVQPKESLKISCAASGFTFSNAAMYWVRQAPGKGLEWVARIRTKPNNYATYYADSVKGRFTISRDDSKSMVYLQMNNLKTEDTAMYYCTAPRRTEGIVSSGVDYWGQGVMVTVSS VL: YELTQPPSVSVSPGQTASITCSGDELPKRYAYWYQQKPGQSIVRVIYKDSERPSGIPERFSGSSSGTTATLTISGTQAEDEADYYCHSTYSDDKLPVFGGGTKLTVLG",binds
14,"K15G (antibody, human IgG1, lambda, co-expressed with EV007156L in CHO-K1 cells; also called #10-22 chimeric antibody (H chain) site substitution variant K15G; copies: 2 + 2) heavy: not shown light: YELTQPPSVSVSPGQTASITCSGDELPKRYAYWYQQKPGQSIVRVIYKDSERPSGIPERFSGSSSGTTATLTISGTQAEDEADYYCHSTYSDDKLPVFGGGTKLTVLGQPKAAPSVTLFPPSSEELQANKATLVCLISDFYPGAVTVAWKADSSPVKAGVETTTPSKQSNNKYAASSYLSLTPEQWKSHRSYSCQVTHEGSTVEKTVAPTECS",binds

# From patent US20150361164A1 (EVEC, published 2015)
